Target: αvβ3 integrin on rat smooth muscle cells (RSMC) (rat)
Assay: cell-based or functional assay

| Binder | IC50 of inhibition of VN-induced migration of RSMC (Boyden chamber chemotaxis) | stimulation of RSMC migration (Boyden chamber chemotaxis) |
| --- | --- | --- |
| IQEGAAGRPKDDR [peptide D2A-Ala (D2A with the two glutamic acids of GEEG changed into alanines)] | 0.01 to 0.02 pM |  |
| IQEGEEGRPKDDR [peptide D2A, synthetic peptide of domain 2 of human uPAR (aa130-142)] |  | 3 fold |
